Data as given in paper PMC3093372, “A Large and Intact Viral Particle Penetrates the Endoplasmic Reticulum Membrane to Reach the Cytosol” (PLoS Pathogens, 2011).

B1: SV40 VP1 coat protein (natural protein, simian virus 40 (SV40), UniProt P03087 1-362, looked up)
chain: MAPTKRKGSCPGAAPKKPKEPVQVPKLVIKGGIEVLGVKTGVDSFTEVECFLNPQMGNPDEHQKGLSKSLAAEKQFTDDSPDKEQLPCYSVARIPLPNINEDLTCGNILMWEAVTVKTEVIGVTAMLNLHSGTQKTHENGAGKPIQGSNFHFFAVGGEPLELQGVLANYRTKYPAQTVTPKNATVDSQQMNTDHKAVLDKDNAYPVECWVPDPSKNENTRYFGTYTGGENVPPVLHITNTATTVLLDEQGVGPLCKADSLYVSAVDICGLFTNTSGTQQWKGLPRYFKITLRKRSVKNPYPISFLLSDLINRRTQRVDGQPMIGMSSQVEEVRVYEDTEELPGDPDMIRYIDEFGQTTTRMQ
notes: major capsid protein VP1 of simian virus 40, native protein of the virus (genome from pUCSV40); no residues stated; Stood in the assays as part of viral particles or of VP1 pentamers; the introduction says the capsid is 72 pentamers of VP1; source: SV40 virions purified from SV40-infected or viral genome-transfected CV-1 cells (OptiPrep gradient); input virus in S1 and S2 fractions and whole cell …

Experiments:
SV40 VP1 coat protein = target: B1; test: co-IP; S2 (Triton X-100 extract of P1, ER-localized virus) from CV-1 cells infected with SV40 for 12 hrs; precipitated with VP1 monoclonal antibodies (CC10 and BC11), Protein G-Dynabeads, wash 50 mM Hepes pH 7.5, 500 mM NaCl, 1% Triton X-100; blot with VP2/VP3 antibody; details: partners not purified
[1] = target: the molecule itself; test: sucrose gradient sedimentation; S1 of CV-1 cells transfected with the SV40 genome for 48 hrs; continuous 20-40% sucrose gradient, 49,500 rpm, 50 min, 4°C; fractions blotted for VP1

Binder | binding result (SV40 VP1 coat protein) | stoichiometry N [1]
SV40 VP2 (natural protein, minor capsid protein VP2 of simian virus 40, native protein of the virus; contains all of VP3 plus an additional N-terminal extension; Detected with a VP2/VP3 antibody that sees both proteins; source: SV40 virions purified from SV40-infected or viral genome-transfected CV-1 cells (OptiPrep gradient); input virus in S1 and S2 fractions of infected CV-1 cells) MGAALTLLGDLIATVSEAAAATGFSVAEIAAGEAAAAIEVQLASVATVEGLTTSEAIAAIGLIPQAYAVISGAPAAIAGFAALLQTVTGVSAVAQVGYRFFSDWDHKVSTVGLYQQPGMAVDLYRPDDYYDILFPGVQTFVHSVQYLDPRHWGPTLFNAISQAFWRVIQNDIPRLTSQELERRTQRYLRDSLARFLEETTWTVINAPVNWYNSLQDYYSTLSPIRPTMVRQVANREGLQISFGHTYDNIDEADSIQQVTERWEAQSQSPNVQSGEFIEKFEAPGGANQRTAPQWMLPLLLGLYGSVTSALKAYEDGPNKKKRKLSRGSSQKTKGTSASAKARHKRRNRSSRS | binds | 
B1 |  | 5
